# The RNAGym collection of RNA variant scans (doi:10.1073/pnas.2313332121)
# Variants at the floor of the assay were thinned out.
# B1: TPR 5TU (parent)
# chain: GGAUCUUCUCGAUCUAACAAAAAAGACAAAUCUGCCACAAAGCUUGAGAGCAUCUUCGGAUGCAGAGGCGGCAGCCUUCGGUGGCGCGAUAGCGCCAACGUUCUCAACUAUGACACGCAAAACGCGUGCUCCGUUGAAUGGAGUUUAUCAUG
# Variants of: B1
# Test: polymerase ribozyme fitness, log enrichment relative to wild type (log ratio); higher = more active; in vitro selection for triplet polymerase activity
# In short: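 A heterodimeric triplet polymerase ribozyme had each of its subunits mutagenized by PCR into a library, which was transcribed. One round of in vitro selection, done in triplicate, annealed each library with a biotinylated primer, its partner subunit and triplets, then incubated it frozen at −7 °C before gel excision of extended constructs, streptavidin-bead capture and RT-PCR. Fitness is the logarithm of genotype enrichment relative to wild-type enrichment, based on Illumina sequencing of inputs and outputs and inverse-variance-weighted replicate averages. A base-2 logarithm is used, and genotypes were kept only with ≥10 input reads and ≥1 read per output.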
row,Variant,polymerase ribozyme fitness (log ratio)
1,U61A A89U,-0.941
2,A60G U61A A97G,-1.38
3,C63A A147C,0.331
4,U61A C75G,-3.89
5,A64C A73U G84A U102G C116A,≤ -4.2
6,U61A G143C,-2.62
7,U61A U78A C95U C123A U146A,≤ -4.2
8,C63U G86A,-2.99
9,U61G C96U U144G,-1.1
10,A60U U127G,-3.08
11,C63A G92U C116U,-3.98
12,A60U C93U U151G,≤ -4.2
13,U61A G92U,-3.41
14,U61A A91U,≤ -4.2
15,C63G A73G,-0.51
16,C63A G117U A119C,0.257
17,A60G G80C G140A G141U,≤ -4.2
18,C63U A98G G126U C129G,≤ -4.2
19,A64C G83C A89U U134A G141A,≤ -4.2
20,U61A G94A,-2.08
21,G62C C95U C96A,-3.59
22,A64G A150U,-3.42
23,C63A C87A A91G,≤ -4.2
24,A60G C123U G124A C131A,-2.39

row,Variant,polymerase ribozyme fitness (log ratio)
1,A60G G126A,1.03
2,U61C U82C C116U U134C,-2.24
3,U61A A137C G140A,-4.19
4,U61A C63U G133U,≤ -4.2
5,U61A U101G,-1.11
6,A60G U134G G143U,-3.39
7,U61A G124C,-2
8,A60U A106G,-0.0172
9,U61G G83U G86A C149U,≤ -4.2
10,U61A A97G G136A,-0.653
11,U61C C96A A121G,-2.74
12,A60G U77G C87U C132G,≤ -4.2
13,A60G G117A,0.434
14,C63G G65C C93G A137C A142U,≤ -4.2
15,G62U U77A G86U C99G,≤ -4.2
16,U61G G68A U77C C87U C93G C123U G126C U135C,≤ -4.2
17,U61A G126C,-0.89
18,A60U G65C,-3.98
19,A64C C69U G84A G136U G141U,≤ -4.2
20,A60U C131A,-2.81
21,A60G C116U,0.141
22,U61A A142G,-1.25
23,A64G A91C,≤ -4.2
24,G62A C93G U130C,-3.01

row,Variant,polymerase ribozyme fitness (log ratio)
1,C63G C69G,-1.75
2,A60U C63A C79G C96U A122U C123U,≤ -4.2
3,U61A C96A G126A C131U,-2.54
4,G62C A106U C125U,-3.86
5,U61G C99U,-2.77
6,A64C G88U A150C,≤ -4.2
7,A64G A91G C123G,≤ -4.2
8,U61A G86U,-2.99
9,U61A G67A C76A G81A C85A,≤ -4.2
10,C63U C125U G133U,-3.67
11,U61A G84A G92U G100U,≤ -4.2
12,C63U A119U U144C,-0.319
13,G62U A115C,-1.97
14,A60G U144A,-0.159
15,A60U G84U U102G,-4.18
16,G62A A98U,-1.42
17,U61G G94A A106C C116A G133C U146A,≤ -4.2
18,C63G A110U G136U U148A,≤ -4.2
19,A60G U139C G141C U144A,-4.04
20,A60U U61A A142C,-3.49
21,C63U C85U C87U,-0.425
22,U61A A66C G74A U90G A91G G133U A138C,≤ -4.2
23,A60U C93U,-3.16
24,G62C G83A,-2.25

row,Variant,polymerase ribozyme fitness (log ratio)
1,U61A A97C,-1.48
2,U61A G68A,≤ -4.2
3,U61A C85A G141C,-2.36
4,U61A C85U C87A C118G U134A,≤ -4.2
5,G62U G86C C95G C132U,≤ -4.2
6,A60G G84A C118A,-0.875
7,G62U A73U,-3.59
8,U61G G92A,≤ -4.2
9,G62U G124C,-1.42
10,U61G C93G C99G C123G C125G,≤ -4.2
11,C63U C85U A113U U146A,-3.03
12,G62A,-0.367
13,G62U,-0.546
14,G62C,-1.07
15,A60G G94A U102A C123G,-1.46
16,C63U C87G,-4.05
17,C63A A64C,-1.46
18,U61C A73U A91U,≤ -4.2
19,U61A G65A G81U C85U U102G,≤ -4.2
20,U61G C63A G71U G80A G94U C105G C116G U139A,≤ -4.2
21,A60G G117C G124U,0.122
22,G62A G70A G71A G80C C87U C108U,≤ -4.2
23,A60G G68U G80C U139A,≤ -4.2
24,G62C G68U A89G C108A A113U,≤ -4.2

row,Variant,polymerase ribozyme fitness (log ratio)
1,C63A G80A C85G C96G A110G,≤ -4.2
2,C63U C103G U146G,-2.3
3,U61A C105U,-1.02
4,G62A C69U,-2.82
5,G62A C85A A121U U134C A137G,-3.02
6,G62C C63U C79A C85U A98U C99U C131A U135C U144A,≤ -4.2
7,U61A C149A,≤ -4.2
8,G62A U130G,-3.67
9,U61C A98U C103G A115G C131U,≤ -4.2
10,C63U G70A G80C G83C C108G C116U,≤ -4.2
11,A60U C132U,-0.719
12,A60U C99U C118U,-2.07
13,U61A C87U,-2.83
14,A60U U130G G143C,≤ -4.2
15,C63G,0.136
16,C63A,0.15
17,C63U,-0.0732
18,G62A U82C C95A U101C U148A,≤ -4.2
19,U61G A122C,-1.51
20,C63A C76G C85U C96U A97G C116G,≤ -4.2
21,G62U C132A,≤ -4.2
22,A60U C87G,≤ -4.2
23,A60U A89C A142U,-2.09
24,U61G C87A A150G,≤ -4.2

row,Variant,polymerase ribozyme fitness (log ratio)
1,A60G U78A A106G C118U,≤ -4.2
2,U61A A147U,-0.329
3,A60U C85A U145A,-1.8
4,U61G C75G G88U A89U U101A G140C,≤ -4.2
5,C63G G67C U135G,≤ -4.2
6,U61C C69U G70U G86U A107C,≤ -4.2
7,U61A U77A C95U A97C U139A A150G,≤ -4.2
8,U61A C87U G92A A106G A122U,-2.84
9,G62C C85A C99G U151G,≤ -4.2
10,C63U C69A C87A G140C,≤ -4.2
11,U61C A64G,≤ -4.2
12,A60G C95U C96A,-1.03
13,C63G G81C U82A,-0.391
14,U61G C95U A97G C105A A106U,≤ -4.2
15,A64G A137G,≤ -4.2
16,A60G U104G G136U U144C,-3.29
17,A60U C85A U101A A119G U127C,≤ -4.2
18,C63G C76U,0.0444
19,A60U A91U C96A C103A A115U,≤ -4.2
20,A60U G80A C85A C93A,≤ -4.2
21,C63U G81C U82C U102G U104A C108A A150C,≤ -4.2
22,U61A A91C G100C A142U,≤ -4.2
23,A64C G71A A107G G141C,≤ -4.2
24,C63U G70A C85G A138C,≤ -4.2

row,Variant,polymerase ribozyme fitness (log ratio)
1,U61G A66C G133C,≤ -4.2
2,C63G C95A A110G A122U,-3.22
3,A60U U77A,≤ -4.2
4,U61A C95U,-0.916
5,U61G G86A,-2.45
6,G62C C85A,-3.75
7,G62A A73C C75G C87U C103G C132G U145G U146A,≤ -4.2
8,A64C G65A G84U C116G U139C,≤ -4.2
9,A60U C96U,-0.416
10,U61A U90C C96A A115U G152U,≤ -4.2
11,C63U C75U C76U G80A U82A C108G C114U U148C,≤ -4.2
12,U61A C69A C85A U139A C149G,≤ -4.2
13,U61A A73G G80U,≤ -4.2
14,C63A A64C C72U A89U U130G,≤ -4.2
15,U61C G81C C95G C123U A142G,≤ -4.2
16,C63U C96U A150G,-1.22
17,U61G C76G C123U,≤ -4.2
18,C63G G65A G71A C87A C118U U145C,≤ -4.2
19,A64C C85A C118G A121C,≤ -4.2
20,U61G U77G G92A C96A G143U,≤ -4.2
21,U61A C118A,-2
22,A60G U90G U145A,≤ -4.2
23,U61C C85A A121G U135A,≤ -4.2
